B1: secreted recombinant monomeric heavy chain CH2 domain (other, human, UniProt P01857 114-223, looked up)
chain: APELLGGPSVFLFPPKPKDTLMISRTPEVTCVVVDVSHEDPEVKFNWYVDGVEVHNAKTKPREEQYNSTYRVVSVLTVLHQDWLNGKEYKCKVSNKALPAPIEKTISKAK
notes: domain: CH2
B2: soluble human ICAM-1/CD54 (receptor)
chain: QTSVSPSKVILPRGGSVLVTCSTSCDQPKLLGIETPLPKKELLLPGNNRKVYELSNVQEDSQPMCYSNCPDGQSTAKTFLTVYWTPERVELAPLPSWQPVGKNLTLRCQVEGGAPRANLTVVLLRGEKELKREPAVGEPAEVTTTVLVRRDHHGANFSCRTELDLRPQGLELFENTSAPYQLQTFVLPATPPQLVSPRVLEVDTQGTVVCSLDGLFPVSEAQVHLALGDQRLNPTVTYGNDSFSAKASVSVTAEDEGTQRLTCAVILGNQSQETLQTVTIYSFPAPNVILTKPEVSEGTEVTVKCEAHPRAKVTLNGVPAQPLGPRAQLLLKATPEDNGRSFSCSATLEVAGQLIHKNQTRELRVLYGPRLDERDCPGNWTWPENSQQTPMCQAWGNPLPELKCLKDGTFPLPIGESVTVTRDLEGTYLCRARSTQGEVTRKVTVNVLSPRYE
notes: also called sICAM-1; SICAM-1

Legend:
[1] = target: B2; assay: ELISA: immobilized monomeric CH2 domain, biotinylated sICAM-1 probe (FIG. 4B)
Method: (§1) Experiments represent a minimum of triplicate wells. Statistical analysis was done using the Student's T-test.
First, fragment domain analysis was performed. […] Briefly, plates were coated with 100 μL of 2.5 μg/mL of full length IgG1 antibody or fragments for 1 hour at room temperature in 0.05 M carbonate buffer. Plates were washed in phosphate buffered saline (PBS) plus 0.1% tween-20 (PBS-T) and blocked with 200 uLs of PBS plus 1% BSA. […] Plates were then washed three times with PBS-T, and quantified using TMB colorimetric substrate (Pierce). Reactions were stopped using 0.1N H₂SO₄ and A450 quantitated using a Varioskan plate reader.

[2] = target: T1, human serum albumin (human, UniProt P02768 25-609); assay: ELISA: immobilized control protein, biotinylated sICAM-1 probe (FIG. 1B)
T1 construct: also called HSA
From the text: as §1

Binder | binding result [1] | binding result [2]
B1 | no binding (tested: 0.5 µg/mL biotinylated sICAM-1) | 
B2 |  | no binding (tested: 5 µg/mL biotinylated sICAM-1)

From patent US20260098858A1 (NAVROGEN, published 2026)
